{"source": "patent US20210371503A1", "target": "prefusion stabilized SARS-CoV-2 S ectodomain (SARS-CoV-2) (UniProt P0DTC2)", "test": "assay not stated; row Binding Affinity Spike Trimer, construct not given"}
{"substance": "REGN10933 (antibody)", "values": [{"measurement": "Kd", "value": 3, "unit": "nM"}]}
